The source of these data is US20110294730A1, “METHOD OF TREATING GLAUCOMA AND INTRAOCULAR HYPERTENSION” (priority 2010, published 2011).

In one series the test system is trabecular meshwork. The following applies: cited from earlier work.
For series [1] the following is noted: in vivo; cited from earlier work.
Series [2] in a line: Curcumin eye drops, retinal damage due to glaucoma. The following applies: curcumin 1 to 5 percent in normal saline. It is filed as in vivo. An excerpt:
We have used curcumin diluted in the normal saline from 1 to 5 percent after extracting it from turmeric using solvents such as DMSO and alcohol as well other known solvents. […] The sclera can be stained yellow that can be mistaken for jaundice. All the above antioxidants can be used with insulin as described above and there is no systemic reaction.

The conditions of series [3]: patients treated with latanoprost; cited from earlier work.
For series [4] the following is noted: […] eye drops; cited from earlier work.

With TGF-a: exogenous growth factor, in the series on trabecular meshwork, the extracellular acidification entry is given as “significantly stimulated”.

For “Insulin glargine [Insulin glargine (Lantus)]”, in series [1], the “Effective duration of action” value was 18 to 20 h, the Maximum duration was 20 to 24 h, the “Onset of Action” value is 3 to 4 h and the Peak action was 8 to 16 h.

For the molecule `COc1cc(/C=C/C(=O)CC(=O)/C=C/c2ccc(O)c(OC)c2)ccc1O` [curcumin], the “improving the retinal damage” value in series [2] was “very effective”.

Consider HGF: exogenous growth factor, for which, in the series on trabecular meshwork, the extracellular acidification entry is on record as “significantly stimulated”.

Take TNF-a: the extracellular acidification entry in the series on trabecular meshwork is “significantly stimulated”.

Consider “Insulin aspart [Insulin aspart (NovoLog)]”, for which, in series [1], the “Effective duration of action” value is 3 to 4 h, the Maximum duration was 4 to 6 h, the “Onset of Action” value is given as “¼-½” and the Peak action result is listed as “½-1¼”.

For “NPH (isophane): intermediate-acting NPH (isophane) insulin”, in series [1], the “Effective duration of action” value was 10 to 16 h, the Maximum duration is 14 to 18 h, the “Onset of Action” value is 2 to 4 h and the Peak action is 6 to 10 h.

Turning to “Insulin detemir [Insulin detemir (Levemir)]”, in series [1], the “Effective duration of action” value was 14 h, the Maximum duration is on record as roughly 20 h, the “Onset of Action” value was 3 to 4 h and the Peak action is 6 to 8 h.

As to “Regular (soluble): short-acting regular (soluble) insulin”, in series [1], the “Effective duration of action” value was 3 to 6 h, the Maximum duration is 6 to 8 h and the Peak action was 2 to 3 h.

Consider “Insulin lispro [Insulin lispro (Humalog)]”, for which, in series [1], the “Effective duration of action” value is 3 to 4 h, the Maximum duration is 4 to 6 h, the “Onset of Action” value was “¼-½” and the Peak action entry is “½-1¼”.

Turning to `CC(C)OC(=O)CCC/C=C\C[C@@H]1[C@@H](CC[C@@H](O)CCc2ccccc2)[C@H](O)C[C@@H]1O` [latanoprost], in series [3], the “increased iris pigmentation, share of patients” value is no more than 17%.

Take EGF: exogenous growth factor: in the series on trabecular meshwork, the extracellular acidification result is reported as “significantly stimulated”.

Take `CNC(=O)Oc1ccc2c(c1)[C@]1(C)CCN(C)[C@@H]1N2C` [physostigmine sulphate]: the miosis entry in series [4] is “sustained miosis”.

For the molecule 11-Ib: exogenous growth factor, in the series on trabecular meshwork, the extracellular acidification result is reported as “significantly stimulated”.

For the molecule FGF-1: exogenous growth factor, the extracellular acidification entry in the series on trabecular meshwork is reported as “significantly stimulated”.

Turning to IGF-1: insulin like growth factor, the extracellular acidification entry in the series on trabecular meshwork was “significantly stimulated”.

On to “Insulin glulisine [Insulin glulisine (Apidra)]”, for which, in series [1], the “Effective duration of action” value was 3 to 4 h, the Maximum duration is 4 to 6 h, the “Onset of Action” value was “¼-½” and the Peak action entry was “½-1¼”.
